Here are results for 1 molecule from patent publication US20200148761A1 (Teva, published 2020).

This assay concerns the target T1, human α-CGRP 1-36-COOH (human).
T1 construct: free C-terminal carboxyl, not amidated; also called 1-36 (not amidated at the C-terminus)
T1 peptide: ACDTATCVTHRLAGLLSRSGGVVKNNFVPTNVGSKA
Briefly: Biacore competition, 50 nM G1 Fab with 10 µM peptide, read on human α-CGRP chip. The text has this:
Y axis represents percentage of binding blocked by the presence of the competing peptide compared with the binding in the absence of the competing peptide. […]
Background: In SPR one partner is held on a chip, and binding of the other changes the refractive index at the surface.

B1: antibody G1 Fab fragment (Fab, V domains shown)
VH: EVQLVESGGGLVQPGGSLRLSCAASGFTFSNYWISWVRQAPGKGLEWVAEIRSESDASATHYAEAVKGRFTISRDNAKNSLYLQMNSLRAEDTAVYYCLAYFDYGLAIQNYWGQGTLVTVSS
VL: EIVLTQSPATLSLSPGERATLSCKASKRVTTYVSWYQQKPGQAPRLLIYGASNRYLGIPARFSGSGSGTDFTLTISSLEPEDFAVYYCSQSYNYPYTFGQGTKLEIK
Regarding B1, the “percentage of binding blocked by competing peptide” value is approximately 40%.
